Key:
[1] = molecular target: antibody-12/36-RLuc8 conjugate (Renilla reniformis); test: BRET competition, Fluorostar; 50 nM mAb-12/36-RLuc8, 200 nM FLAG-GFP^2 as competitor
[2] = molecular target: antibody-CLICK-RLuc8 (anti-FLAG mAb-dPEG4-DBCO:RLuc8:dPEG8azide conjugate) (Renilla reniformis); test: BRET competition; 5 nM antibody-CLICK-RLuc8, 150 nM FLAG-GFP^2 as competitor, 100 nM FLAG peptide; same for every order of addition
[3] = molecular target: antibody-CLICK-RLuc8 (anti-FLAG mAb-dPEG4-DBCO:RLuc8:dPEG8azide conjugate) (Renilla reniformis); test: BRET competition; 50 nM conjugate, 200 nM FLAG-GFP^2 as competitor, 1 µM FLAG peptide

Chain of antibody-CLICK-RLuc8 (anti-FLAG mAb-dPEG4-DBCO:RLuc8:dPEG8azide conjugate) (Renilla reniformis) (P27652 other isoform, or with tags, fused parts or gaps): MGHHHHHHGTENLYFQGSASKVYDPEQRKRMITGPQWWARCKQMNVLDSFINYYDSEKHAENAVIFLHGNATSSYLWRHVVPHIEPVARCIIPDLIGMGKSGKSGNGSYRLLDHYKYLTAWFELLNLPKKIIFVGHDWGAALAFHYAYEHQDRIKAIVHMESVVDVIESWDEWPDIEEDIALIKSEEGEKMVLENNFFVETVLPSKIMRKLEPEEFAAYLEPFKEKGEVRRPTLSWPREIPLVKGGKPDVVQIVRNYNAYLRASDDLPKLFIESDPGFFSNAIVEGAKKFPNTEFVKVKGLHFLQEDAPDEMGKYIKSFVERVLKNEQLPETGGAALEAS
Chain of antibody-12/36-RLuc8 conjugate (Renilla reniformis) (P27652 other isoform, or with tags, fused parts or gaps): as above

EC50 [1]: 274 nM
decrease in the BRET ratio [2]: 22%
response to 1 µM FLAG peptide [3]: 45%
Substance: FLAG peptide (DYKDDDDK)
